Assay results reported in article PMC3268813 (Scientific Reports, 2012).

T1: GST-tagged chicken CK2α kinase dead (K68A mutant) (chicken, UniProt P21868 1-391, K68A)
T1 sequence: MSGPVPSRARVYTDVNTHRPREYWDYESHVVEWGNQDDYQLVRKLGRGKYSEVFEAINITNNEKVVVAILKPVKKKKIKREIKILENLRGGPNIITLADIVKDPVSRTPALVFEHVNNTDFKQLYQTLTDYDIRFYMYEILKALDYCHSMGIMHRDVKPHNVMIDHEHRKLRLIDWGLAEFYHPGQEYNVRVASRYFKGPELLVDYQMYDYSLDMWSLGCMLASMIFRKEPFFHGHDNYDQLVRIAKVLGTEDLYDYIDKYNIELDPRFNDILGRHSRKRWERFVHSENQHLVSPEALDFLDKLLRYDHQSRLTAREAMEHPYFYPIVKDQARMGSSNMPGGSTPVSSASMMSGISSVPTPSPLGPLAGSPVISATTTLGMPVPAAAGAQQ

T2: GST-tagged chicken CK2α (chicken, UniProt P21868 1-391)
T2 sequence: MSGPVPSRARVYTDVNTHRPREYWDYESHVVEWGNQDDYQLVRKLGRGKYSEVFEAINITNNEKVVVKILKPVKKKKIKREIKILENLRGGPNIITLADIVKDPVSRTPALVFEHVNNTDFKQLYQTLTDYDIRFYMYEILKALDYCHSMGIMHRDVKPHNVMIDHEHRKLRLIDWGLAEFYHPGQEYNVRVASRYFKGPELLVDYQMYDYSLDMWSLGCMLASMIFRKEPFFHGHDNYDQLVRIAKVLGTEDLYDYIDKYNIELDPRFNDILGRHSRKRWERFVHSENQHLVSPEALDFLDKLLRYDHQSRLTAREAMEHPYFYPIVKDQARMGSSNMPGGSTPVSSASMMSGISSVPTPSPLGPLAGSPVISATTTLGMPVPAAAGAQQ


Key:
[1] = molecular target: T1, GST-tagged chicken CK2α kinase dead …; experiment: pull-down
GST-tagged chicken CK2α = molecular target: T2, GST-tagged chicken CK2α; experiment: pull-down
SEC = molecular target: the molecule itself; experiment: SEC

binding result [1] | binding result (GST-tagged chicken CK2α) | Binder | stoichiometry N (SEC)
binds | binds | CRN2 wild-type C-terminal polypeptide (aa300-474), His6-tagged (domain or fragment) PYVHYLNTFSSKEPQRGMGYMPKRGLDVNKCEIARFFKLHERKCEPIIMTVPRKSDLFQDDLYPDTAGPEAALEAEEWFEGKNADPILISLKHGYIPGKNRDLKVVKKNILDSKPTANKKCDLISIPKKTTDTASVQNEAKLDEILKEIKSIKDTICNQDERISKLEQQMAKIAA | 3
– | – | CRN2 S463A phospho-resistant C-terminal polypeptide (aa300-474), His6-tagged (domain or fragment) PYVHYLNTFSSKEPQRGMGYMPKRGLDVNKCEIARFFKLHERKCEPIIMTVPRKSDLFQDDLYPDTAGPEAALEAEEWFEGKNADPILISLKHGYIPGKNRDLKVVKKNILDSKPTANKKCDLISIPKKTTDTASVQNEAKLDEILKEIKSIKDTICNQDERIAKLEQQMAKIAA | 3
binds | binds | CRN2 S463D phosphomimetic C-terminal polypeptide (aa300-474), His6-tagged (domain or fragment) PYVHYLNTFSSKEPQRGMGYMPKRGLDVNKCEIARFFKLHERKCEPIIMTVPRKSDLFQDDLYPDTAGPEAALEAEEWFEGKNADPILISLKHGYIPGKNRDLKVVKKNILDSKPTANKKCDLISIPKKTTDTASVQNEAKLDEILKEIKSIKDTICNQDERIDKLEQQMAKIAA | 3
